Square brackets hold non-standard residues; d marks the D form. Ends that are not written are not given here. * marks the point of attachment. Biotin = O=C1N[C@H]2[C@H](CS[C@H]2CCCCC(=O)*)N1; pS = N[C@@H](COP(=O)(O)O)C(=O)O
B2: myc-tagged BRCA1 tandem BRCT domain construct (residues 1313-1863) M1775R (other, not shown: small tags and cut ends)
chain: QDPFLIGSSKQMRHQSESQGVGLSDKELVSDDEERGTGLEENNQEEQSMDSNLGEAASGCESETSVSEDCSGLSSQSDILTTQQRDTMQHNLIKLQQEMAELEAVLEQHGSQPSNSYPSIISDSSALEDLRNPEQSTSEKAVLTSQKSSEYPISQNPEGLSADKFEVSADSSTSKNKEPGVERSSPSKCPSLDDRWYMHSCSGSLQNRNYPSQEELIKVVDVEEQQLEESGPHDLTETSYLPRQDLEGTPYLESGISLFSDDPESDPSEDRAPESARVGNIPSSTSALKVPQLKVAESAQSPAAAHTTDTAGYNAMEESVSREKPELTASTERVNKRMSMVVSGLTPEEFMLVYKFARKHHITLTNLITEETTHVVMKTDAEFVCERTLKYFLGIAGGKWVVSYFWVTQSIKERKMLNEHDFEVRGDVVNGRNHQGPKRARESQDRKIFRGLEICCYGPFTNRPTDQLEWMVQLCGASVVKELSSFTLGTGVHPIVVVQPDAWTEDNGFHAIGQMCEAPVVTREWVLDSVALYQCQELDTYLIPQIPHSHY
notes: also called M1775R cancer-associated mutant
B3: myc-tagged BRCA1 tandem BRCT domain construct (residues 1313-1863) P1749R (other, not shown: small tags and cut ends)
chain: QDPFLIGSSKQMRHQSESQGVGLSDKELVSDDEERGTGLEENNQEEQSMDSNLGEAASGCESETSVSEDCSGLSSQSDILTTQQRDTMQHNLIKLQQEMAELEAVLEQHGSQPSNSYPSIISDSSALEDLRNPEQSTSEKAVLTSQKSSEYPISQNPEGLSADKFEVSADSSTSKNKEPGVERSSPSKCPSLDDRWYMHSCSGSLQNRNYPSQEELIKVVDVEEQQLEESGPHDLTETSYLPRQDLEGTPYLESGISLFSDDPESDPSEDRAPESARVGNIPSSTSALKVPQLKVAESAQSPAAAHTTDTAGYNAMEESVSREKPELTASTERVNKRMSMVVSGLTPEEFMLVYKFARKHHITLTNLITEETTHVVMKTDAEFVCERTLKYFLGIAGGKWVVSYFWVTQSIKERKMLNEHDFEVRGDVVNGRNHQGRKRARESQDRKIFRGLEICCYGPFTNMPTDQLEWMVQLCGASVVKELSSFTLGTGVHPIVVVQPDAWTEDNGFHAIGQMCEAPVVTREWVLDSVALYQCQELDTYLIPQIPHSHY

Columns and labels:
[1] = molecular target: myc-tagged BRCA1 tandem BRCT domain construct (residues 1313-1863) G1738E (human, UniProt P38398 1313-1863); assay: pull-down of in vitro translated 35S-labelled protein on bead-immobilized peptide
Description: (§1) FIG. 3A is a schematic representation of protein-peptide contacts between a BRCA1 tandem BRCT domain and the BACH1 phosphopeptide. Hydrogen bonds, Van der Waals interactions and water molecules are denoted by dashed lines, crescents, and circles respectively. In FIG. 3B, the wild-type and mutant myc-tagged BRCA1 tandem BRCT domain constructs containing the indicated mutations were analysed for binding to a bead-immobilized optimal tandem BRCT domain-interacting phosphopeptide, YDIpSQVFPF, or its non-phosphorylated counterpart. […] In FIG. 3C, U2OS cells transfected with wild-type and mutant myc-tagged BRCA 1 tandem BRCT domain constructs were analysed for association with endogenous BACH1.
(§2) An optimal phosphopeptide for binding the BRCA1 BRCTs was determined by oriented peptide library screening as described previously. This peptide was synthesized in both its phosphorylated and non-phosphorylated form with a biotin group at the N-terminus using N-α-FMOC-protected amino acids and standard BOP/HOBt coupling chemistry. These peptides were conjugated to streptavidin coated beads (Sigma-Aldrich). […] The bead-immobilized peptides (10 μL of beads) were added to 10 μL of the in vitro translated [³⁵S]-labeled protein pool in 150 μL binding buffer (50 mM Tris-HCl (pH7.6), 150 mM NaCl, 0.5% NP-40, 1 mM EDTA, 2 mM DTT, 8 μg/mL pepstatin, 8 μg mL⁻¹ aprotinin, 8 μg mL⁻¹ leupeptin, 800 μM Na3VO4, 25 mM NaF).

[2] = molecular target: B2; assay: as above
Description: as §1, §2

[3] = molecular target: T1, myc-tagged BRCA1 tandem BRCT domain construct (from residue 1313) Y1853X (human, UniProt P38398 1313-1852); assay: as above
T1 construct: Stop at Tyr1853; also called Y1853X (truncates the last 11 residues)
Description: as §1, §2

[4] = molecular target: T2, myc-tagged BRCA1 tandem BRCT domain construct (residues 1313-1863) mutated at Ser1655 alone (human, UniProt P38398 1313-1863); assay: as above
T2 construct: also called Ser1655 mutant; S1655A
Description: as §1, §2

[5] = molecular target: T3, myc-tagged BRCA1 tandem BRCT domain construct (residues 1313-1863) mutated at Lys1702 alone (human, UniProt P38398 1313-1863); assay: as above
T3 construct: also called Lys1702 mutant; K1702M
Description: as §1, §2

[6] = molecular target: T4, myc-tagged BRCA1 tandem BRCT domain construct (residues 1313-1863) S1655A/K1702M (human, UniProt P38398 1313-1863); assay: as above
T4 construct: also called K1702M/S1655A
Description: as §1, §2

[7] = molecular target: B3; assay: as above
Description: as §1, §2

[8] = molecular target: T5, endogenous BACH1 (full-length) of U2OS cells (Homo sapiens (Human), UniProt Q9BX63 1-1249); assay: co-immunoprecipitation from transfected U2OS cells (anti-myc IP, anti-BACH1 blot)
T5 construct: Endogenous full-length protein in U2OS cell lysates, detected with a rabbit anti-BACH1 antibody; The phosphorylation state in the lysate was not measured; also called full-length BACH1; wild-type BACH1
T5 sequence: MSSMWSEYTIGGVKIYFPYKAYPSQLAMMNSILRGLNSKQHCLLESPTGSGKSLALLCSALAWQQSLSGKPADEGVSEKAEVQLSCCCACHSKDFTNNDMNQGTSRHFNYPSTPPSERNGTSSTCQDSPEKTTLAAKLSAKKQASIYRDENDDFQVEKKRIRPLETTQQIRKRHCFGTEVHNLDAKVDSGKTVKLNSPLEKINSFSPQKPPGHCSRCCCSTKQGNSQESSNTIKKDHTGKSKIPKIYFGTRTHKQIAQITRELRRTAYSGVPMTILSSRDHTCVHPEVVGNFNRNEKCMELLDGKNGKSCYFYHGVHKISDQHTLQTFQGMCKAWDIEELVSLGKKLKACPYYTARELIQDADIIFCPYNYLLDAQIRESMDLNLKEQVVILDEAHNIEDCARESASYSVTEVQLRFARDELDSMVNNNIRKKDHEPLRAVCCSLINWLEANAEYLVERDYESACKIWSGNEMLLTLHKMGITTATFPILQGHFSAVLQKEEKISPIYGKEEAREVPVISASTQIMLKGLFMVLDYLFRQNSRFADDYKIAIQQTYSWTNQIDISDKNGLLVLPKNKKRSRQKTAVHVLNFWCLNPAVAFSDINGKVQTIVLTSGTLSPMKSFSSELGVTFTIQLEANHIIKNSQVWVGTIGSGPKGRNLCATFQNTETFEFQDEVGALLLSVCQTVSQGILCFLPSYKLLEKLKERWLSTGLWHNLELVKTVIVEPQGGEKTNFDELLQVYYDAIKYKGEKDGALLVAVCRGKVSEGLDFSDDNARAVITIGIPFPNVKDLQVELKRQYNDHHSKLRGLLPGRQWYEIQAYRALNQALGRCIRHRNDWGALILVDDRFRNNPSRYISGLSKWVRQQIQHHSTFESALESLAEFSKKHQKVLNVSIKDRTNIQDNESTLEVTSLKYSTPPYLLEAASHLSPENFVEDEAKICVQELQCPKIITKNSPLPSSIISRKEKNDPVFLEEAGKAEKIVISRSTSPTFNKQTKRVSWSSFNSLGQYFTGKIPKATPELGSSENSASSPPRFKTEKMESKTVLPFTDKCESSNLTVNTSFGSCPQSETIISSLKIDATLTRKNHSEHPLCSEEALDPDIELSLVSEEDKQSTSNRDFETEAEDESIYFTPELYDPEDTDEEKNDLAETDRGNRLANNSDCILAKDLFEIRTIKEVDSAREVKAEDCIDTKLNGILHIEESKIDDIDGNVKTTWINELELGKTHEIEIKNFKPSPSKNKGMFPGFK

Measured: binding result

B1: optimal tandem BRCT domain-interacting phosphopeptide YDIpSQVFPF (peptide)
peptide: Biotin-YDI[pS]QVFPF
notes: Found by oriented peptide library screening; Conjugated to streptavidin-coated beads; also called phosphorylated biotinylated peptide
not listed: [8]
no binding: all other assays above

B2
no binding: [8]

B3
no binding: [8]
